Laboratory results: patent publication US20200376136A1 (Regeneron, published 2020)
Substitutions are numbered along the chain they refer to.

T1: human six-transmembrane epithelial antigen of prostate 2 (STEAP2) (human, UniProt Q8NFT2 1-490)
T1 sequence: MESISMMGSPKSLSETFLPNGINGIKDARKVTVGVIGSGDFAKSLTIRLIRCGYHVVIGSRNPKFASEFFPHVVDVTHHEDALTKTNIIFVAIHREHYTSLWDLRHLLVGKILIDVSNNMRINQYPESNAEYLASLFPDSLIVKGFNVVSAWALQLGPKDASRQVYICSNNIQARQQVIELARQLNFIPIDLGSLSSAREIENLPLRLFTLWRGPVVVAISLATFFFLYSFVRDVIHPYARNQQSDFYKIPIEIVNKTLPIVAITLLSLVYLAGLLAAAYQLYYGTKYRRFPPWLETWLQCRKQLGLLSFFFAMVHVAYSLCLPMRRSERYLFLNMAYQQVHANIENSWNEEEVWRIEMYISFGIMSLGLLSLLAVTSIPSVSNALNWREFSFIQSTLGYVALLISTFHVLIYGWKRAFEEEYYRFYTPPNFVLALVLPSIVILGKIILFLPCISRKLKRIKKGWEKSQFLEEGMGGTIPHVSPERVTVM

B1: BSSTEAP2/CD3-005 (bispecific antibody, IgG4, V domains shown)
VH 1: QVQLQQSGPGLVKPSQTLSLTCAISGDSVSSNRAAWNWIRQSPSRGLQWLGRTYYRSKWYNDYAVSLRSRITINPVTSKNQVALHMNSVTPEDTAVYYCARAGIVVVPGPETFYYYDHGLDVWGQGTTVTVSS
VH 2: QVQLVESGGGLVHPGRSLRLSCAASGFKFDDYTMHWVRQAPGKGLEWVSDISWNSGSKGYADSVKGRFTISRDNAKDSLYLQMDSLRAADTAFYYCAKDKSGYGHFYYYAMDVWGQGTTVTVSS
VL: DIQMTQSPSSLSASVGDRVTITCRASQSIRSYLNWYQQKPGKAPELLIHAASSLQSGVPSRFSGSGSGTDFTLTISSLQPEDFASYYCQQSYSAPPITFGQGTRLEIK
B2: BSSTEAP2/CD3-009 (bispecific antibody, IgG4, V domains shown)
VH 1: B1 VH 1 with A23V, S31T, R33S, Q48E, L67V, M86L, F113Y, D117Y
VH 2: B1 VH 2
VL: B1 VL with S28N, E45K, A50V, S85T, A94T, Q101H
B3: BSSTEAP2/CD3-007 (bispecific antibody, V domains shown)
VH 1: B1 VH 1
VH 2: EVQLVESGGGLVQPGRSLRLSCAASGFTFADYTMHWVRQAPGKGLEWVSDISWNSGSIAYADSVKGRFTISRDNAKNSLYLQMNSLRTEDTAFYYCAKDSRGYGHYKYLGLDVWGQGTTVTVSS
VL: B1 VL
B4: BSSTEAP2/CD3-001 (bispecific antibody, IgG4, V domains shown)
VH 1: B1 VH 1
VH 2: EVQLVESGGGLVQPGRSLRLSCAASGFTFDDYSMHWVRQAPGKGLEWVSGISWNSGSKGYADSVKGRFTISRDNAKNSLYLQMNSLRAEDTALYYCAKYGSGYGKFYHYGLDVWGQGTTVTVSS
VL: B1 VL
B5: BSSTEAP2/CD3-008 (bispecific antibody, IgG4, V domains shown)
VH 1: QVQLQQSGPGLVKPSQALSLTCAISGDSVSSNSAAWNWIRQSPSRGLEWLGRTYYRSKWYNDYAVSVKSRITINPDTSKNHFSLHLNSMTPEDTAVYYCARARIVVVPGPEVYYYYYYDMDVWGQGTTVTVSS
VH 2: B1 VH 2
VL: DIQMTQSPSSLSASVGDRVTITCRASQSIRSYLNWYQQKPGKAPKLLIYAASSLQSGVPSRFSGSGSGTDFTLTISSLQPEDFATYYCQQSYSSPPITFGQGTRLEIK
B6: BSSTEAP2/CD3-006 (bispecific antibody, V domains shown)
VH 1: B1 VH 1
VH 2: B4 VH 2 with A23V, G59D
VL: B1 VL
B7: BSSTEAP2/CD3-004 (bispecific antibody, IgG4, V domains shown)
VH 1: QVQLVESGGGVVQPGRSLRLSCVASGFTISSYGMNWVRQAPGKGLEWVAVISYDGGNKYSVDSVKGRFTISRDNSKNTLYLQMNSLRAEDSAVYYCARGRYFDLWGRGTLVTVSS
VH 2: EVQLVESGGGLVQPGRSLRLSCAASGFTFADYTMHWVRQGPGTGLEWVSDIGWSGGSLGYADSVKGRFTISRDNAKNSLYLEMNNLRPEDTALYYCVKDKSGYGKFQYGLDVWGQGTTVTVSS
VL: DIQMTQSPSTLSASVGDRVTITCRASQSISSWLAWYQQKPGRAPNLLISKASSLKSGVPSRFSGSGSGTEFTLTVSSLQPDDFATYYCQQYYSYSYTFGQGTKLEIK
B8: H1M11243N (antibody, mouse IgG1, V domains shown)
VH: B5 VH 1 with A17T, H81Q, M89V, R103G, E111D, V112I, D119G
VL: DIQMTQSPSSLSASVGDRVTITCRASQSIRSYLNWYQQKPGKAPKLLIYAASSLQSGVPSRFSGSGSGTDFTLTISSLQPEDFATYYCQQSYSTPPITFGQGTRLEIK
B9: H2M11163N (antibody, mouse IgG2, V domains shown)
VH: B5 VH 1
VL: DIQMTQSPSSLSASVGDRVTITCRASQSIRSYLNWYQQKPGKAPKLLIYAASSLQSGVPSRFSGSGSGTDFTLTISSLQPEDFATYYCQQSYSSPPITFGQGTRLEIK
B10: H2M11162N (antibody, mouse IgG2, V domains shown)
VH: B1 VH 1
VL: B1 VL
B11: H2M11164N (antibody, mouse IgG2, V domains shown)
VH: B1 VH 1 with A23V, S31T, R33S, Q48E, L67V, M86L, F113Y, D117Y
VL: B1 VL with S28N, E45K, A50V, S85T, A94T, Q101H
B12: CD3-VH-P (antibody, V domains shown)
VH: B4 VH 2 with A23V, G59D
VL: DIQMTQSPSSLSASVGDSVTITCRASQSINNYLNWYQQKPGKAPKLLIYTASSLLSGVPSRFSGSGSGTDFTLTISGLHPEDFATYFCQQSFSTPPITFGQGTRLDIK
notes: Anti-CD3 antibody from a genetically modified mouse
B13: CD3-VH-G (antibody, V domains shown)
VH: B4 VH 2
VL: B12 VL
notes: CD3-VH-P engineered to germline frameworks

These binders were tested against T2, STEAP2/1 chimeric construct (assay: FACS titration on PC3 cells expressing the STEAP2/1 chimera).
T2 construct: Expressed on engineered PC3 human prostate cancer cells; also called PC3_STEAP2/1
Experimental: (§1) Flow cytometric analysis was utilized to determine binding of STEAP2×CD3 bispecific antibodies to Jurkat, PC3_STEAP2/1 chimeric and cynomolgus T cells, followed by detection with a phycoerythrin (PE)-labeled anti-human IgG antibody. […] After incubation, the cells were washed twice with cold PBS containing 1% filtered FBS and a PE-conjugated anti-human secondary antibody was added to the cells and incubated for an additional 30 minutes. Wells containing no antibody or secondary antibody only were used as a control. After incubation, cells were washed, re-suspended in 200 μL cold PBS containing 1% filtered FBS and analyzed by flow cytometry on a BD FACS Canto II.

Binder | EC50 [nM]
B1 | 31.8
B2 | 42.1
B3 | 5.37
B4 | 3.44
B5 | 68.8
B6 | 12.2
B7 | 79.1

Each binder was assayed against T3, human CD3 (human, UniProt P07766 23-207; P04234 22-171) (assay: FACS titration on Jurkat cells (human CD3)).
T3 construct: As expressed on Jurkat cells or human T cells within the T cell receptor complex; also called hCD3
T3 sequence (P07766 23-207 limits assumed, chain 1 of 2): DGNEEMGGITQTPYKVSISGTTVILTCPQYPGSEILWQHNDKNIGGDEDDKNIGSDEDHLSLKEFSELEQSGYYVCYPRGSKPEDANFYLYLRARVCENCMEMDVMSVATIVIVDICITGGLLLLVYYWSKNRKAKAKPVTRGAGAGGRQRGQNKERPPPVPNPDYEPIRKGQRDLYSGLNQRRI
T3 sequence (P04234 22-171 limits assumed, chain 2 of 2): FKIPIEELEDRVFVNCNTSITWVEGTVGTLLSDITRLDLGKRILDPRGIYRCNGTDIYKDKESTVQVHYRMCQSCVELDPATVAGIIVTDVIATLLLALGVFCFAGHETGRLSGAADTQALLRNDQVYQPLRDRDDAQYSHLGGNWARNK
Experimental: as §1

Binder | EC50 [nM]
B1 | 14.1
B2 | 4.14
B3 | 0.615
B4 | 7.19
B5 | 1.52
B6 | 3.98
B7 | 0.688

What follows are binders tested against T3, human CD3 (assay: cell-based or functional assay).

Binder | T cells activation EC50 [M] (CD69+ of CD2+ T cells)
B4 | 1.61e-12
B7 | 9.4e-13

These binders were tested against T1, human six-transmembrane epithelial … (assay: cell-based or functional assay).

Binder | C4-2 cells depletion EC50 [pM]
B1 | 7.29
B2 | 2.73
B3 | 8.11
B4 | 4.68
B5 | 4.11
B6 | 3.93
B7 | 3.11

These binders were tested against T1, human six-transmembrane epithelial … (assay: FACS titration on C4-2 cells (endogenous STEAP2), 4-parameter fit).
Experimental: (§2) Briefly, 1×10⁵ cells were incubated with 10 μg/ml of anti STEAP2 antibodies, or isotype control antibodies for 30 min on ice in antibody dilution buffer. Following one wash with antibody dilution buffer, cells were incubated with 10 μg/ml of PE conjugated anti-human or antimouse Fc secondary antibodies for 30 min on ice. Following one additional wash, samples were incubated with Cytofix (1% formaldehyde) for 20 minutes. After one final wash, samples were filtered through a Pall 96 well filtration block, run on a Hypercyt® cytometer and analyzed in ForeCyt™ (IntelliCyt, Albuquerque, N. Mex.). Mean fluorescence intensities (MFI) were expressed as fold change above unstained levels (background). The average fold above background at antibody concentrations of 100-300 nM were determined.

Binder | EC50 [nM]
B8 | 23
B9 | 13
B10 | 4.9
B11 | 3.7

Each binder was assayed against T3, human CD3 (assay: FACS titration of Jurkat cells).

Binder | EC50 [nM]
B12 | 1 to 40

These binders were tested against T1, human six-transmembrane epithelial … (assay: FACS on C4-2 cells (endogenous STEAP2), MFI fold above unstained, average at 100-300 nM antibody).
Experimental: as §2

Binder | Avg F.A.B (fold above background)
B8 | 116
B9 | 256
B10 | 365
B11 | 360

These binders were tested against T3, human CD3 (assay: FACS assays).

Binder | binding result
B13 | binds

Target: T3, human CD3
Assay: cell-based or functional assay
Remark: another data set of the same source

Binder | hPBMC Proliferation [M] (EC50, with anti-CD28)
B1 | 2.76e-12
B2 | 3.68e-13
B3 | 8.26e-11
B4 | 1.6e-10
B5 | 7.76e-12
B6 | 8.14e-13
B7 | 7.1e-13
